pIC50: −log10 of the molar value. Bounds are passed on as bounds.

Experiment in all cases: IEDB peptide-MHC binding, purified MHC/competitive/radioactivity; ≥ and ≤ were set here for values at or beyond the usual limits of such assays
Holding throughout (conditions): source organism: Bordetella pertussis

Assay [1] deals with HLA-B*44:03.
Assay [2] addresses HLA-B*53:01.
The target in assay [3] is HLA-B*35:01.
In assay [4] the target is HLA-B*57:01.
Assay [5] deals with HLA-B*07:02.

Regarding YEVTPTRML, the pIC50 in assay [1] is 4.72.

Consider TPLPVSLTA, for which the pIC50 was 4.93 in assay [2] and 6.68 in assay [3].

Take KEVDGIIQE: the pIC50 in assay [1] is 4.41.

As for YSTGDLRAY, the pIC50 in assay [3] is 4.50.

For the sequence GEIALGDAT, in assay [1], the pIC50 was 4.81.

Turning to VARLVKLQG, in assay [4], the pIC50 is ≤ 4.15.

For the sequence YALKSRIAL, the pIC50 in assay [3] was 4.71.

Consider VIGACTSPY, for which the pIC50 in assay [3] was 4.20.

Regarding PFIIKLKDC, the pIC50 in assay [3] was 4.93.

For LPPRPVVAE, in assay [5], the pIC50 was ≤ 4.11.

In the case of HADWNNQSI, the pIC50 in assay [2] was 4.91.

As for PLPPRPVVA, the pIC50 in assay [1] was 4.25.

Regarding KAKSLTTEI, the negative-log IC50 (pIC50) in assay [4] is ≤ 4.15.

For the origin of these results see the Immune Epitope Database (IEDB).
